Source: article PMC10911177, “Exploring the ATG9A interactome uncovers interaction with VPS13A” (Journal of cell science, 2024)

Biological target: T1, 3×Flag−His6−ATG9A (purified) (UniProt Q7Z3C6 1-839)
T1 construct: ATG9A; also called Flag−ATG9A; 3×Flag−ATG9A
T1 sequence (looked up): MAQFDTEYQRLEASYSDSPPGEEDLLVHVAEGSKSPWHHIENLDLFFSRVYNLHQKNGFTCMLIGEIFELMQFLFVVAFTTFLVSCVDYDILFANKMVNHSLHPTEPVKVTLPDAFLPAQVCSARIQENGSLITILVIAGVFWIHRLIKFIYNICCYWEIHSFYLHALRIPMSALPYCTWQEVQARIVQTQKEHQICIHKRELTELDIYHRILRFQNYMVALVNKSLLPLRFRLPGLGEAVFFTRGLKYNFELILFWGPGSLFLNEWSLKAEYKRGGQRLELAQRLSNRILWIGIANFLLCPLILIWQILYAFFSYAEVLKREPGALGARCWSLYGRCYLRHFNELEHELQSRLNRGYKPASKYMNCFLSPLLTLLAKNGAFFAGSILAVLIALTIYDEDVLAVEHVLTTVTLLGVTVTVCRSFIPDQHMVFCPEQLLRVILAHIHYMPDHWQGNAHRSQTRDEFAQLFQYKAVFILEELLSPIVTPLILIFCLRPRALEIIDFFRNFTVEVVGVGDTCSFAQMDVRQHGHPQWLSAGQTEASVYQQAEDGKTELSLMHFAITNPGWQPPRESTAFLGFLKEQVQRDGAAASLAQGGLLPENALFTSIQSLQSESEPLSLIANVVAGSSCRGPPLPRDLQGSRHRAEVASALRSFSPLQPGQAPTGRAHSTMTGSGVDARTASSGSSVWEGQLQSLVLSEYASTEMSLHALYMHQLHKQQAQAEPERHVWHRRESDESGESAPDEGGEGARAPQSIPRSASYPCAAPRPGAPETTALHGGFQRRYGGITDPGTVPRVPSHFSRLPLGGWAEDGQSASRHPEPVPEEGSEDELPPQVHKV
Assay: co-IP; in vitro IP: 100 μg purified 3×Flag−GFP−VPS13A fragment 4 mixed with 10 μg purified ATG9A at 4°C in 0.002% LMNG:CHS (5:1), GFP-Trap beads, four washes with VPS13 buffer with detergent; immunoblot
Details: both partners purified

binding result: binds
B1: 3×Flag−eGFP−VPS13A fragment 4 (purified) (domain or fragment, human, UniProt Q96RL7 2554-3174, looked up)
chain: VVWETKPKKKARWKPMSVKHTEKLEREFKEYTESSPSEDKVIQLDTNVPVRLTPTGHNMKILQPHVIALRRNYLPALKVEYNTSAHQSSFRIQIYRIQIQNQIHGAVFPFVFYPVKPPKSVTMDSAPKPFTDVSIVMRSAGHSQISRIKYFKVLIQEMDLRLDLGFIYALTDLMTEAEVTENTEVELFHKDIEAFKEEYKTASLVDQSQVSLYEYFHISPIKLHLSVSLSSGREEAKDSKQNGGLIPVHSLNLLLKSIGATLTDVQDVVFKLAFFELNYQFHTTSDLQSEVIRHYSKQAIKQMYVLILGLDVLGNPFGLIREFSEGVEAFFYEPYQGAIQGPEEFVEGMALGLKALVGGAVGGLAGAASKITGAMAKGVAAMTMDEDYQQKRREAMNKQPAGFREGITRGGKGLVSGFVSGITGIVTKPIKGAQKGGAAGFFKGVGKGLVGAVARPTGGIIDMASSTFQGIKRATETSEVESLRPPRFFNEDGVIRPYRLRDGTGNQMLQVMENGRFAKYKYFTHVMINKTDMLMITRRGVLFVTKGTFGQLTCEWQYSFDEFTKEPFIVHGRRLRIEAKERVKSVFHAREFGKIINFKTPEDARWILTKLQEAREPSPSL
notes: VPS13A, human, fragment 4, residues 2554-3174; Subcloned into pcDNA3.1(+); The methods partly write '3×Flag−eGFP−VPS13A' without 'fragment 4'; also called Flag−GFP−VPS13A4; 3×Flag-VPS13A fragment 4
